The values below are quoted from earlier work in US20110015587A1, “Irrigation Device and Method Using Same” (priority 2009, published 2011).

In the data set the test system is fibroblasts. The conditions noted are these: in six hours; through motility of fibroblasts.

B1: Lactoferrin (protein, UniProt P02788 20-710, looked up)
Lactotransferrin: GRRRSVQWCAVSQPEATKCFQWQRNMRKVRGPPVSCIKRDSPIQCIQAIAENRADAVTLDGGFIYEAGLAPYKLRPVAAEVYGTERQPRTHYYAVAVVKKGGSFQLNELQGLKSCHTGLRRTAGWNVPIGTLRPFLNWTGPPEPIEAAVARFFSASCVPGADKGQFPNLCRLCAGTGENKCAFSSQEPYFSYSGAFKCLRDGAGDVAFIRESTVFEDLSDEAERDEYELLCPDNTRKPVDKFKDCHLARVPSHAVVARSVNGKEDAIWNLLRQAQEKFGKDKSPKFQLFGSPSGQKDLLFKDSAIGFSRVPPRIDSGLYLGSGYFTAIQNLRKSEEEVAARRARVVWCAVGEQELRKCNQWSGLSEGSVTCSSASTTEDCIALVLKGEADAMSLDGGYVYTAGKCGLVPVLAENYKSQQSSDPDPNCVDRPVEGYLAVAVVRRSDTSLTWNSVKGKKSCHTAVDRTAGWNIPMGLLFNQTGSCKFDEYFSQSCAPGSDPRSNLCALCIGDEQGENKCVPNSNERYYGYTGAFRCLAENAGDVAFVKDVTVLQNTDGNNNEAWAKDLKLADFALLCLDGKRKPVTEARSCHLAMAPNHAVVSRMDKVERLKQVLLHQQAKFGRNGSDCPDKFCLFQSETKNLLFNDNTECLARLHGKTTYEKYLGPQYVAGITNLKKCSTSPLLEACEFLRK
Regarding B1, the “reduction of collagen gel surface area” value is given as 50%.
